From patent publication EP4663199A1 (Strike Pharma AB, dated 2025)

Tests used:
[1] = molecular target: peptide SEQ ID NO:234 (tag moiety …, AAY spacers, cargo peptide)
[2] = molecular target: peptide SEQ ID NO:243 (tag moiety …, GGS spacer, cargo peptide)
[3] = molecular target: peptide SEQ ID NO:240 (tag moiety …, no spacer, cargo peptide)
[4] = molecular target: peptide SEQ ID NO:235 (tag moiety […], AAA spacers, cargo peptide)
[5] = molecular target: peptide SEQ ID NO:228 (tag moiety …, AAY spacers, cargo peptide)
[6] = molecular target: peptide SEQ ID NO:230 (tag moiety …, GGS spacers, cargo peptide)
[7] = molecular target: peptide SEQ ID NO:237 (tag moiety …, GGS spacer, cargo peptide)
[8] = molecular target: peptide
[9] = molecular target: peptide SEQ ID NO:236 (tag moiety …, GGS spacers, cargo peptide)

B1: bispecific binding molecule comprising a first specific binding molecule (comprising SEQ ID NO:265 a (bispecific antibody)
VH: EVQLLESGGGLVQPGGSLRLSCAASGFTFSSYAMSWVRQAPGKGLEWVSGISGYSGSTYYADSVKGRFTISRDNSKNTLYLQMNSLRAEDTAVYYCARYYSYYGYYYFDYWGQGTLVTVSS
VL: DIQMTQSPSSLSASVGDRVTITCRASQSISSYLNWYQQKPGKAPKLLIYAASSLQSGVPSRFSGSGSGTDFTLTISSLQPEDFATYYCQQGYPYPFTFGQGTKLEIK
scFv: QVQLVQSGAEVKKPGASVKVSCKASGFNIKDFNIHWVRQAPGQGLEWIGRIDPESGDAEYVPKFQGRVTMTRDTSTSTVYMELSSLRSEDTAVYYCTTGSYDLDVEYWGQGTLVTVSSGGGGSGGGGSGGGGSGGGGSDIQMTQSPSSLSASVGDRVTITCHASQNINVWLSWYQQKPGKAPKLLIYKASTLHTGVPSRFSGSGSGTDFTLTISSLQPEDFATYYCQQGQSYPLTFGQGTKLEIK
Work on B1 yielded a Kd [1] of 0.017 nM, a Kd [2] of 0.0027 nM and a Kd [3] of 0.0055 nM. For the same binder, the Kd [4] was 0.011 nM, the Kd [5] was 0.0078 nM and the Kd [6] was 0.016 nM. It also gave a Kd [7] of 0.076 nM, a Kd [8] of 0.012 nM and a Kd [9] of 0.012 nM.
